Target: H3.2–H4 tetramer (human) (UniProt Q71DI3)
Test: SEC-MALS

Substance: MCM2 HBD(43–160) (from UniProt P49736 43-160) (domain or fragment)
- stoichiometry N (MCM2 HBD per H3–H4 tetramer): 2

From article PMC4685956
